Experimental data: PMC7954794, “Protein context shapes the specificity of SH3 domain-mediated interactions in vivo” (Nature Communications, 2021)

Legend:
Assay type in all cases: cell-based, Saccharomyces cerevisiae
[1] = system: 575 putative partners (preys) of 22 WT SH3-containing proteins; assay: DHFR-PCA on solid medium, WT and SH3-deleted baits (Fig. 1B); design: key to Score: 0: SH3-independent; 1: SH3-dependent PPIs; 2: SH3-inhibited PPIs; details: for medrep (log2 median colony size normalized to plate background, PCA score): label = prey
Method in brief: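 Interactions scored by DHFR protein-fragment complementation on solid medium using robotic pinning; preys (DHFR F[3] fusions) arrayed in duplicate with control borders. Baits carried C-terminal DHFR F[1,2]-FLAG tags, tested as wild type and as SH3-deleted versions carrying a flexible Gly/Ser stuffer.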

BEM1-1 = assay: DHFR-PCA on solid medium, bait BEM1-1 (Fig. 1B); details: bait BEM1-1, label = prey; for medrep (log2 median colony size normalized to plate background, PCA score): 2-8 replicates
Description: (§1) Supplement 41467_2021_21873_MOESM8_ESM.xlsx, sheet "Fig1B" | column: medsize; medrep; Ratio; Score

BUD14 = assay: DHFR-PCA on solid medium, bait BUD14 (Fig. 1B); details: bait BUD14, label = prey; for medrep (log2 median colony size normalized to plate background, PCA score): 4 replicates
Description: as §1

ABP1 = assay: DHFR-PCA on solid medium, bait ABP1 (Fig. 1B); details: bait ABP1, label = prey; for medrep (log2 median colony size normalized to plate background, PCA score): 2-4 replicates; for Ratio (SH3-deleted/WT medrep): only significant differences showed, PPIs completely lost have a ratio of 0.1 and the gained PPIs 2.5
Description: as §1

BEM1-2 = assay: DHFR-PCA on solid medium, bait BEM1-2 (Fig. 1B); details: bait BEM1-2, label = prey; for medrep (log2 median colony size normalized to plate background, PCA score): 2-8 replicates
Description: as §1

BBC1 = assay: DHFR-PCA on solid medium, bait BBC1 (Fig. 1B); details: bait BBC1, label = prey; for medrep (log2 median colony size normalized to plate background, PCA score): 2-4 replicates
Description: as §1

BOI2 = assay: DHFR-PCA on solid medium, bait BOI2 (Fig. 1B); details: bait BOI2, label = prey; 3-8 replicates
Description: as §1

BOI1 = assay: DHFR-PCA on solid medium, bait BOI1 (Fig. 1B); details: bait BOI1, label = prey; 3-8 replicates
Description: as §1

[2] = bait SLA1-3, DHFR-PCA, Replicates 4 (2 for YCR009C, YDR388W, YIL033C)
[3] = only significant differences showed, PPIs completely lost have a ratio of 0.1 and the gained PPIs 2.5

B1: YCR030C (protein, UniProt P25623 1-870, looked up)
Suppressor of yeast profilin …: MTEQRTKYADSILTTKSPYEATETIRIRLSQVKLLNKDFYLLFKELANLKRNYAQQLRKIIAENEDITKILNAQMIESNVLTPQEMSAFRFNSLGELRNVWDTVIEELKSDLKSSTEYYNTLDQQVVRELKESVENNTSWRESKDLHSKLSKNAASIEHYSKNNENSSHLEEARRQWDQQSPYLFELFETIDYNRLDTLKNCMLRFQTSFSDYLLNTTKECETVMTKFLAFEPQSEIDRFAKDASQYNFQLSSSSKEVVPNNASPASATGARPVSVSNGAANTEREKKSPQKDKRKSAFGNIGHRLASASSSLTHNDLMNNEFSDSTNNSSLKSKKSSHTLRSKVGSIFGRNKTKNKRQQQSSSNSHIQASITETPNNSSTRVSSTATSSIYQKQRRPTYSSSKSNNWTPGEASDTPPLPPHATPKNVDAPVTADTPPAQTFTPSEVPPSTPQQSSPPTAKEPDSSNLPKTVPISISQPPLQPQSKTKPLPVEPASPSISLPTATVDNQPSGQVDSRPLHIRAPALPPSRKQNFIHNRDSQLYDSLPNHGSGATPTSSSLSSIPQERPVSTLSSQITGELRELNPQATGSSTSLVGQSLFQHSSLDTSQFGLNASIAEVLNASFKDGMLQNSQLIGEIALNYLPNSVMNSPLPIGINLRINNGAKFEKVILNQAFIERVAPEEFKVNPSFIDSRTLGAIKYSIKEPIAPIVIHPVWRFESHQASVVLTVKMSPSLPDEISQIVIEDLVVFVNIDGANATSALSKPQGSFSKEKKRITWRFKEPVVLTRNGEGQRLIARFITDGLAHESAKGVITKFTISETDNVALPHSGAGSGITLTCQELDENNPFGGEWLDVNTKRTLTTGNYHGLA
In the case of B1, the “medrep (log2 median colony size normalized to plate background, PCA score)” value ([1]; bait SLA1-2, DHFR-PCA, Replicates 4 (2 for YCR009C, YDR388W)) is reported as 3.1776, the Score ([1]; bait SLA1-2, label = prey) is reported as 1 and the “Ratio (SH3-deleted/WT medrep)” value ([1]; bait SLA1-2, label = prey, only significant differences shown, PPIs completely lost have a ratio of 0.1, gained PPIs 2.5) is reported as 0.1. The “medrep (log2 median colony size normalized to plate background, PCA score)” value [1, 2] was 3.1776, the Score ([1]; bait SLA1-3, label = prey) was 0 and the “medrep (log2 median colony size normalized to plate background, PCA score)” value (BEM1-1) was 2.035. The “Ratio (SH3-deleted/WT medrep)” value (BEM1-1; [3]) was 0.1, the “medrep (log2 median colony size normalized to plate background, PCA score)” value (BUD14) was 2.234 and the “medrep (log2 median colony size normalized to plate background, PCA score)” value (ABP1) was 2.201. The “medrep (log2 median colony size normalized to plate background, PCA score)” value (BEM1-2) was 2.035 and the “Ratio (SH3-deleted/WT medrep)” value (BEM1-2; [3]) was 0.1.

B2: YER149C (protein, UniProt P40091 1-420, looked up)
Protein PEA2: MHKFDLELSRRANPLLFSAERYEEYPLKYDELKQYLLSQNPSHPHHNSRPYTSIDYFDYLLYRSKNDESEIDLDKKLVSEFALYYVQKEHLNSDDLNPTLNELLKLQPKSADWYEMMLRILESINTTGIDQLTKENNNSFPNSKRARSSTNMGGTDKFNKGAYHTDKADDDKNEILQELTSFLMSNSIQKGIDIKPIPLDDPVKFLKNGINSILDTCVSLEKNTSSPPISPNAAAIQEEDSSKKLEELETAFSDLQLAHNFLTKQFENDRAEYVQDIEKLTRTNRELQDKLLNNHSNLSKTEKKLHELEQENKELEKANNKLNSSRHNFGMSSPASSPVTWDPSSPSSVGSPTSGSGSRSLSIMTSEFKKVLTSTQRKYEKELSDEREHRFKLERELALLKNAEANTSLALNRDDPPDML
For B2, the “medrep (log2 median colony size normalized to plate background, PCA score)” value (BUD14) was 1.879 and the “Ratio (SH3-deleted/WT medrep)” value (BUD14; [3]) was 0.1.

B3: YKL117W (protein, UniProt P28707 2-216, looked up)
Co-chaperone protein SBA1: SDKVINPQVAWAQRSSTTDPERNYVLITVSIADCDAPELTIKPSYIELKAQSKPHVGDENVHHYQLHIDLYKEIIPEKTMHKVANGQHYFLKLYKKDLESEYWPRLTKEKVKYPYIKTDFDKWVDEDEQDEVEAEGNDAAQGMDFSQMMGGAGGAGGAGGMDFSQMMGGAGGAGSPDMAQLQQLLAQSGGNLDMGDFKENDEEDEEEEIEPEVKA
With B3 the “medrep (log2 median colony size normalized to plate background, PCA score)” value [1, 2] was 4.6716, the Score ([1]; bait SLA1-3, label = prey) was 0 and the “medrep (log2 median colony size normalized to plate background, PCA score)” value (BBC1) was 1.6151. For the same molecule, the “Ratio (SH3-deleted/WT medrep)” value (BBC1; [3]) was 0.1, the “medrep (log2 median colony size normalized to plate background, PCA score)” value (BUD14) was 3.847 and the “medrep (log2 median colony size normalized to plate background, PCA score)” value (ABP1) was 3.786. For the same molecule, the “Ratio (SH3-deleted/WT medrep)” value (ABP1) was 1.319.

B4: YHR158C (protein, UniProt P38853 1-1164, looked up)
Kelch repeat-containing …: MAGFSFAKKFTHKKHGKTPSDASISDQSREASLSTPPNEKFFTKQETPQKGRQFSQGYHSNVNKTSSPPMFARKQVSESRIQPSAVPPQQRNVSGPSTTLHKQLSKQREYTVWNRIKLQNSPFPRYRHVASAYVTDKNQIYVIGGLHDQSVYGDTWILTAFDNATRFSTTTIDISEATPPPRVGHAAVLCGNAFVVFGGDTHKVNKEGLMDDDIYLLNINSYKWTVPAPVGPRPLGRYGHKISIIATTQMKTKLYVFGGQFDDTYFNDLAVYDLSSFRRPDSHWEFLKPRTFTPPPITNFTMISYDSKLWVFGGDTLQGLVNDVFMYDPAINDWFIIDTTGEKPPPVQEHATVVYNDLMCVVGGKDEHDAYLNSVYFLNLKSRKWFKLPVFTAGIPQGRSGHSLTLLKNDKILIMGGDKFDYARVEEYDLHTSDIDMQRGTIVYTLDLARIKDLCPGVMDVPTDTPTPRNGNLDLATPVTPTSHQTKNMNVPISAAPLASAPSPAPKDFSDADRLNREVHNRNVSTEHQNQSHPVNSESHLIAEPNILTPYVPSESSQTPVMKITSNKPFDTPTIQKEPDLSETMDPTVGNQRIPSSIYGDNLTPANQIKNNSPILETLPSNEIKTPQNGNIEEIKHLPDADEKIDSTTTFDQEINGDKLGTSSMSKVEEDGNVADEDDEIGVAQMASSPSKDQFKIKHYNESSELSQNNTEIDKLSEPVDITIKKSDTAGHDSANHVIDASDEKNVSPMGDVPTDTKNEEASVPINRDATTEVVDRALFEKLRSELQSLKELTHEKALEAGAHIKELETELWQLKSQKNSGTTKEIDELDSVRLQSKCEILEADNHSLEDKVNELEELVNSKFLDIENLNEVIQFQNEKIKSLELEPNYKEKLEELQIEHENLSRENERLKNESKQHNEDIINNVANYSSQLGSLISHWKENRANSSFLESSSSLISVSDENGEKTVGEPYGDQSRHHRVVINKLTNRLDDLLERSQELTISKEKLSSEYHALKMEHSSLSQDVLVKENEIKKIQNDYKESISSMDSASKALMVSQRELEKYKSLNKKLIDELDELKFKNGVCSENFENGLRSTEESSNNVKNSNSIRENQFNIKINDLKAELFITNQERDDLKSEVLELKKRLLNLENNTKQVNEDADSDLL
In the case of B4, the “medrep (log2 median colony size normalized to plate background, PCA score)” value (BUD14) is reported as 3.841.

B5: YLR332W (protein, UniProt P36027 26-376, looked up)
Cell wall integrity sensor …: QFFVQSSSSNSSAVSTARSSVSRVSSSSSILSSSMVSSSSADSSSLTSSTSSRSLVSHTSSSTSIASISFTSFSFSSDSSTSSSSSASSDSSSSSSFSISSTSATSESSTSSTQTSTSSSSSLSSTPSSSSSPSTITSAPSTSSTPSTTAYNQGSTITSIINGKTILSNHYTTVTYTPSATADSSNKSKSSGLSKKNRNIVIGCVVGIGVPLILVILALIYMFCIQSSRTDFIDSDGKVVTAYRANKFTKWWYMLLGKKVSDEYHSDSPLGGSASSAGGLDLDEADDVMEQSSLFDVRIRDSDSVLPNANTADHNNTNSGGEPINSSVASNDIIEEKFYDEQGNELSPRNY
For B5, the “medrep (log2 median colony size normalized to plate background, PCA score)” value (BEM1-1) was 4.445, the “medrep (log2 median colony size normalized to plate background, PCA score)” value (BBC1) was 4.7031 and the “medrep (log2 median colony size normalized to plate background, PCA score)” value (BUD14) was 1.439. For the same molecule, the “medrep (log2 median colony size normalized to plate background, PCA score)” value (ABP1) was 3.345, the “Ratio (SH3-deleted/WT medrep)” value (ABP1) was 1.326 and the “medrep (log2 median colony size normalized to plate background, PCA score)” value (BEM1-2) was 4.445. For the same molecule, the “medrep (log2 median colony size normalized to plate background, PCA score)” value (BOI2) was 4.169 and the “medrep (log2 median colony size normalized to plate background, PCA score)” value (BOI1) was 3.534.
